Measurements from paper PMC10123652, “An Antibody Targeting Fibroblast Activation Protein Simultaneously Fused to Interleukin-2 and Tumor Necrosis Factor Selectively Localizes to Neoplastic Lesions” (Antibodies, 2023).

Experiments:
IL2-7NP2-TNF^mut (human) = assay: SEC; Superdex 200 Increase 10/300 GL; purified protein dialyzed against PBS pH 7.4; IgG (150 kDa) and SIP (80 kDa) as controls
[1] = target: T1, recombinant human fibroblast activation protein (FAP) (Homo sapiens, UniProt Q12884); assay: ELISA; plate coated with 0.1 µM human FAP overnight at 4 °C in 50 mM HEPES, 100 mM NaCl, pH 7.4; serial dilutions of IL2-7NP2-TNF^mut in 2% milk-PBS, 4 h at RT; detection with Protein A-HRP; triplicate; details: both partners purified
T1 construct: also called human FAP antigen; hFAP
T1 sequence (Q12884 whole entry): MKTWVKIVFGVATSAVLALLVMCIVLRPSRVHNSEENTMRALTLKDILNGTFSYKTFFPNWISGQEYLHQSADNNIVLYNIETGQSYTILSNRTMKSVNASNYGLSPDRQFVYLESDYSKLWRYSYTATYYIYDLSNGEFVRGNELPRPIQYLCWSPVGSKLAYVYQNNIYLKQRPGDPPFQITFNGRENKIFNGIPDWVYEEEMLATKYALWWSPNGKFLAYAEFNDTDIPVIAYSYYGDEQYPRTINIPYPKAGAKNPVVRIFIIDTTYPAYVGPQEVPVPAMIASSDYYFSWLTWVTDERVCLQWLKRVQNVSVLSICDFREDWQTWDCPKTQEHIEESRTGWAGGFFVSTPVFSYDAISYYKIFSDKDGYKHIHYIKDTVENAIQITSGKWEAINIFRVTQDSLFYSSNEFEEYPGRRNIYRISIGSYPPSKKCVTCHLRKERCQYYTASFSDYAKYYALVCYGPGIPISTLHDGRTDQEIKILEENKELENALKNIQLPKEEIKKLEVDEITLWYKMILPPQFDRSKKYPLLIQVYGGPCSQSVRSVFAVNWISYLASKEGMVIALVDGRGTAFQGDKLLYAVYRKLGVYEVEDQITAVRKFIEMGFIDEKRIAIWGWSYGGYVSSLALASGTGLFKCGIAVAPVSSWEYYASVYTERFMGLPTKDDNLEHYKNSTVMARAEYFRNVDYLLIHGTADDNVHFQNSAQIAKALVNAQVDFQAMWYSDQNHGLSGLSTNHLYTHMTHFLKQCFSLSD

stoichiometry N (IL2-7NP2-TNF^mut (human)): 3
Kd [1]: ~0.1 nM
B1: IL2-7NP2-TNF^mut (other, human)
VH: EVQLLESGGGLVQPGGSLRLSCAASGFTFSSYAMSWVRQAPGKGLEWVSAIGSVGGPTYYADSVKGRFTISRDNSKNTLYLQMNSLRAEDTAVYYCAKRLAWFDYWGQGTLVTVSS
VL: EIVLTQSPGTLSLSPGERATLSCRASQSVSSSYLAWYQQKPGQAPRLLIYGASSRATGIPDRFSGSGSGTDFTLTISRLEPEDFAVYYCQQSGKGPLTFGQGTKVEIK
notes: wild-type human interleukin-2 (IL2), N-terminal moiety of the fusion; mutated version of human TNF (TNFα); Non-covalent homotrimer; also called dual-cytokine antibody fusion protein
